Measurements taken from PMC10582461, “Self‐Aggregating Tau Fragments Recapitulate Pathologic Phenotypes and Neurotoxicity of Alzheimer's Disease in Mice” (Advanced Science, 2023).

Target: the molecule itself
Test: in vitro self-aggregation, non-reducing SDS-PAGE and immunoblot; tau-AC species alone (40-100 µM) in self-assembly buffer (10 mM HEPES pH 7.4, 100 mM NaCl, 1 mM DTT), 37 °C, shaking 250 rpm, no inducers; non-reducing SDS-PAGE, IB and CBB

B1: tau‐AC‐TQDVSK (tau‐AC with the PHF6 motif substituted with hydrophilic residues) (domain or fragment, human, UniProt P10636-8 306-378, looked up)
chain: TQDVSKPVDLSKVTSKCGSLGNIHHKPGGGQVEVKSEKLDFKDRVQSKIGSLDNITHVPGGGNKKIETHKLTF
notes: human tau residues 306-378 of 2N4R (441 residues) with 306VQIVYK311 changed to TQDVSK; numbers count on: 2N4R tau (441 residues); source: E. coli Rosetta 2 (DE3), pET28a, purified
B1: binds.
